In patent US20200405829:

Columns and labels:
[1] = test system: T1, Str3 circular zymogen of RNase 1
T1 sequence: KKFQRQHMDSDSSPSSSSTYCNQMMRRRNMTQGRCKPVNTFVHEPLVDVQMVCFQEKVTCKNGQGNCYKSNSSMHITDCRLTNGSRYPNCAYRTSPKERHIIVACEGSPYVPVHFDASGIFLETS

[2] = test system: T2, Str4 circular zymogen of RNase 1
T2 sequence: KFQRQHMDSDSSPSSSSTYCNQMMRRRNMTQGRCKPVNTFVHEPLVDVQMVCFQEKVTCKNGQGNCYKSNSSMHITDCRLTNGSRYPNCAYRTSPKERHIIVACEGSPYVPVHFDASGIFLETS

[3] = test system: T3, wild-type RNase 1
T3 sequence: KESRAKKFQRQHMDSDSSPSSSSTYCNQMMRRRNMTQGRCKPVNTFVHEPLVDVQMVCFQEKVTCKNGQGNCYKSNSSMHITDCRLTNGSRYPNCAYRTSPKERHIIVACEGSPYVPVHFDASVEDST

[4] = test system: T4, Str2 circular zymogen of RNase 1
T4 sequence: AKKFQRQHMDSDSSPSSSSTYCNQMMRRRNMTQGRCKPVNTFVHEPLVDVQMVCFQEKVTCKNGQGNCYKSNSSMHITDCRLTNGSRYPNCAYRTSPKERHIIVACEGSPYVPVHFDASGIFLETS

Q: What does the source list for HIV-1 protease?
A: kcat/KM (HIV-1 protease) [1]: 1300 M⁻¹ s⁻¹; kcat/KM (HIV-1 protease) [2]: 2500 M⁻¹ s⁻¹; proteolytic cleavage after 3 hours of treatment at 37° C. [3]: no detectable cleavage of wild-type RNase 1 was observed; kcat/KM (HIV-1 protease) [4]: 3900 M⁻¹ s⁻¹
